Biological target: T1, bacteriophage phi29 DNA packaging ATPase gp16 (bacteriophage phi29), P11014
T1 chain: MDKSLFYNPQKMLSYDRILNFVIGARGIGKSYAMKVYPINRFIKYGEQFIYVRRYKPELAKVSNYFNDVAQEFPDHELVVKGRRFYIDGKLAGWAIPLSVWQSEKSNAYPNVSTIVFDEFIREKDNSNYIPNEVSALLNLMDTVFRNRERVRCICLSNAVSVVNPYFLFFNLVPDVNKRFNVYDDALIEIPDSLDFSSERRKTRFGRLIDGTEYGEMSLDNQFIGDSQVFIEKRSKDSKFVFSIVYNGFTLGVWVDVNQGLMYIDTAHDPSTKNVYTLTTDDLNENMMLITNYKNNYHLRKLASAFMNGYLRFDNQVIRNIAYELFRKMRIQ
Assay: cryo-EM structure
Conditions: remark: other sources report otherwise

B1: bacteriophage phi29 DNA packaging ATPase gp16, P11014 1-332 (enzyme)
chain: T1 chain
Question: With B1 as the binder, how does the stoichiometry N read?
Answer: 5

From article PMC8104870
